Where “and” joins values, the source holds several entries; their conditions need not be identical. Equal values may be shown once. Read-outs that look alike come from different tables or passages of the source. Positions of bridges follow the written chain, without caps; N, C: chain ends. Non-standard residues stand in square brackets, D forms with d. No end group written: not given here. *: point of attachment. Phe(3,4,5-F3) = N[C@@H](Cc1cc(F)c(F)c(F)c1)C(=O)O; Myristoyl = CCCCCCCCCCCCCC(=O)*; pGlu = O=C1CC[C@@H](C(=O)O)N1; Nle = CCCC[C@H](N)C(=O)O; Abu = CC[C@H](N)C(=O)O; Aib = CC(C)(N)C(=O)O
T1: human apelin receptor (human, UniProt P35414 1-380)
T1 sequence (looked up): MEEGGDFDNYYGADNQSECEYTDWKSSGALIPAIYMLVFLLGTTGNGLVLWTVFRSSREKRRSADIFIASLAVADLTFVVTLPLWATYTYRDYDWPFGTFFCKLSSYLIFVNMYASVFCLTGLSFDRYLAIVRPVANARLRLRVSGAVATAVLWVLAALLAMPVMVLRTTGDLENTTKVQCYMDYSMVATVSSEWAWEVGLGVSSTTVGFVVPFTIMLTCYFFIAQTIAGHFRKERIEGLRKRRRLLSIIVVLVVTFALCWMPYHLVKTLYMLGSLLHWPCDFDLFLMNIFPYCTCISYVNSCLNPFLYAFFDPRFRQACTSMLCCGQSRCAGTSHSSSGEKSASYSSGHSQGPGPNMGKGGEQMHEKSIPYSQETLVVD

B1: MM297 (peptide)
peptide: [pGlu]RPR[Nle]CKHCR[Aib]R[Nle][Phe(3,4,5-F3)]
modifications: cysteine pairing not given here
B2: MM298 (peptide)
peptide: CRPR[Nle][Abu]KHCR[Aib]R[Nle][Phe(3,4,5-F3)]
modifications: cysteine pairing not given here
B3: MM299 (peptide)
peptide: CRPR[Nle]CKH[Abu]R[Aib]R[Nle][Phe(3,4,5-F3)]
modifications: cysteine pairing not given here
B4: MM312 (peptide)
peptide: ARPR[Nle]CKH[Abu]R[Aib]R[Nle][Phe(3,4,5-F3)]
B5: MM313 (peptide)
peptide: Ac-ARPR[Nle]CKH[Abu]R[Aib]R[Nle][Phe(3,4,5-F3)]
B6: MM314 (peptide)
peptide: ARPR[Nle][Abu]KH[Abu]R[Aib]R[Nle][Phe(3,4,5-F3)]
B7: MM315 (peptide)
peptide: Myristoyl-ARPR[Nle][Abu]KH[Abu]R[Aib]R[Nle][Phe(3,4,5-F3)]
B8: MM316 (peptide)
peptide: Myristoyl-ARPR[Nle][Abu]HK[Abu]R[Aib]R[Nle][Phe(3,4,5-F3)]
B9: MM193 (peptide)
peptide: CRPR[Nle]CKHCR[Aib]R[Nle][Phe(3,4,5-F3)]
modifications: cysteine pairing not given here
notes: also called CRPR-Nle-CKHCR-Aib-R-Nle-(3,4,5-trifluoro-)F
B10: MM262 (peptide)
peptide: QRPR[Nle]CKHCR[Aib]R[Nle][Phe(3,4,5-F3)]
modifications: cysteine pairing not given here
notes: also called QRPR-Nle-CKHCR-Aib-R-Nle-(3,4,5-trifluoro-)F
B11: MM54 (peptide)
peptide: CRPRLCKHCRPRLC
modifications: disulfide 1-6, 9-14
notes: Previously published macrocyclic comparator; also called cyclo(1-6)CRPRLC-KH-cyclo(9-14)CRPRLC
B12: MM107 (peptide)
peptide: CRPRLCHKCRPRLC
B13: MM108 (peptide)
peptide: CRPRLCKHCRPRLC
notes: Linear peptide
B14: MM300 (peptide)
peptide: Myristoyl-CRPR[Nle]CKHCR[Aib]R[Nle][Phe(3,4,5-F3)]
modifications: cysteine pairing not given here
notes: also called Myristoyl-CRPR-Nle-CKHCR-Aib-R-Nle-(3,4,5-trifluoro-)F
B15: MM302 (peptide)
peptide: CRPR[Nle]CHKCR[Aib]R[Nle][Phe(3,4,5-F3)]
modifications: cysteine pairing not given here
notes: also called CRPR-Nle-CHKCR-Aib-R-Nle-(3,4,5-trifluoro-)F

Legend:
human apelin receptor [1] = biological target: T1, human apelin receptor; assay: cell-based or functional assay
human apelin receptor [2] = biological target: T1, human apelin receptor; assay: radioligand competition vs [Glp65,Nle75,Tyr77][125I]apelin-13 on CHO-K1 cells expressing human apelin receptor (Cerep); Cheng-Prusoff
Procedure: Binding assays were performed by Cerep (Celle L'Evescault, France) on Chinese Hamster Ovary (CHO-K1) cells expressing the human apelin receptor. […] The results were expressed as a percent of control specific binding ((measured specific binding/control specific binding)×100) and as a percent inhibition of control specific binding (100−((measured specific binding/control specific binding)×100)) obtained in the presence of the test compounds. […] Results showing an inhibition between 20% and 50% were indicative of weak to moderate effects.

human apelin receptor [3] = biological target: T1, human apelin receptor; assay: cell-based or functional assay; remark: listed apart in the source
human apelin receptor [4] = biological target: T1, human apelin receptor; assay: radioligand competition vs [Glp65,Nle75,Tyr77][125I]apelin-13 on human left ventricle homogenate
Procedure: Equilibrium was broken by centrifugation (20,000 g for 10 min, 4° C.). Pellets were washed with Tris-HCl buffer (50 mmol/L, pH 7.4, 4° C.), re-centrifuged and bound radioactivity in the final pellets counted. Data from triplicate experiments were analysed using the iterative non-linear curve fitting programs EBDA and LIGAND (KELL package, Biosoft, UK) or GraphPad Prism 6 to derive values of affinity (expressed as either the equilibrium dissociation constant KD or the negative log₁₀ of the dissociation constant, pKᵢ±sem) and receptor density (BMAX±sem in fmoles bound per mg protein).

human apelin receptor [5] = biological target: T1, human apelin receptor; assay: binding to human left ventricle
human apelin receptor [6] = biological target: T1, human apelin receptor; assay: cell-based or functional assay; remark: listed apart in the source

Binder | DRx cAMP pA2 (human apelin receptor [1]) | Ki (human apelin receptor [2]) | further results
B1 | 6.08 and 6.14 | 55 nM | DRx β-Arrestin pA2 (human apelin receptor [1]): 7.38
B2 | 7.59 and 7.12 | 16 nM | DRx β-Arrestin pA2 (human apelin receptor [1]): 7.76
B3 | 7.32 and 6.95 | 6.1 nM | DRx β-Arrestin pA2 (human apelin receptor [1]): 8.1 and 8.53
B4 | 6.6 and 6.84 | 190 nM and 160 nM | –
B5 | 6.66 and 6.92 | 53 nM and 47 nM | –
B6 | 6.43 and 6.71 | 10 nM and 8.9 nM | –
B7 | 8.52 and 8.11 | 3 nM and 2.7 nM | –
B8 | 7.41 and 7.88 | 3 nM and 2.8 nM | –
B9 | – | 19 nM | DRx β-Arrestin pA2 (human apelin receptor [3]): 7.68; HLV pKi (human apelin receptor [4]): 6.12
B10 | – | 34 nM | DRx β-Arrestin pA2 (human apelin receptor [3]): 7.53
B11 | – | 82 nM | DRx cAMP pD2 (human apelin receptor [3]): 5.86; Kd (human apelin receptor [5]): 358 nM; DRx cAMP assay EC50 (weak agonist activity) (human apelin receptor [6]): 1400 nM
B12 | – | 180 nM | DRx β-Arrestin pA2 (human apelin receptor [3]): 7.24
B13 | – | 140 nM | DRx β-Arrestin pA2 (human apelin receptor [3]): 7.41
B14 | – | 13 nM | –
B15 | – | 17 nM | –

Reference: patent publication US20240279280A1 (CAMBRIDGE ENTERPRISE, published 2024)
